Experimental data published in the supplement of paper PMC10567573.

B1: C10orf62 (parent)
chain: TSECPSDKDKSPESHKAKNESWIK
B2: DVL3 (parent)
chain: SDVVDWLYHNVEGFTDRREARKYA

Variants of: B1
Test: protein stability index of a GFP-peptide fusion (GPS, HEK-293T) (PSI 1-6); higher = more stable
Details: c terminus: a fixed tail appended
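Further: lentivirally expressed fusions sorted by FACS into six bins by GFP to DsRed ratio, PSI derived from sequencing read proportions per bin multiplied by bin number.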

Protein stability index, by site and new letter:
C4: P 3.39 | N 3.4 | L 3.74 | Y 3.15 | S 2.46 | A 3.53 | Q 3.52 | K 3.51 | M 3.79 | F 3.33 | I 3.92 | R 3.15 | H 3.34 | E 3.55 | G 3.94 | D 3.17 | T 3.28 | W 2.58
E3: W 2.63 | C 3.01 | I 2.14 | N 3.36 | V 2.87 | H 2.84 | T 3.27 | S 3.34 | G 3.73 | P 4.09 | Y 2.73 | M 2.88 | Q 2.94 | D 2.73 | L 3.5 | A 2.94 | K 2.92 | R 3.21
S2: F 3.12 | H 3.47 | I 3.25 | C 3.96 | P 3.17 | G 3.26 | K 3.13 | L 3.24 | R 4.43 | A 2.63 | M 3.17 | Y 3.47 | T 3.03 | W 3.64 | Q 3.85 | N 3.74 | D 3.7 | E 3.98
T1: C 2.88 | R 4.3 | I 3.04 | H 3.57 | D 3.6 | Y 3.14 | W 2.28 | M 3.23 | F 3.08 | N 3.38 | K 3.31 | V 2.3 | L 4.35 | Q 3.27 | E 3.09 | A 2.87
P5: E 3.84 | G 3.41 | T 2.9 | Q 3.32 | D 3.84 | K 3.24 | V 4.14 | L 3.33 | N 3.94 | Y 3.59 | R 3.45 | W 3.04 | S 3 | H 3.75 | F 3.28 | I 3.86 | M 3.08 | A 3.72 | C 2.8
S6: M 2.94 | C 3.17 | K 2.95 | E 3.71 | L 3.82 | F 3.34 | G 3.62 | A 4.02 | N 3.76 | H 3.56 | D 3.51 | I 3.35

Variants of: B2
Test: as above
Details: c terminus: a fixed tail appended

Protein stability index, by site and new letter:
Y23: E 3.97 | R 4.18 | P 3.97 | T 3.55 | L 3.15 | F 3.17 | N 4.05 | I 2.82 | A 4.21 | V 3.6 | S 4.11 | D 3.95 | K 3.83 | W 2.75 | H 3.73 | G 4.05 | C 3.69
R21: S 2.84 | I 2.33 | Y 2.34 | W 1.67 | V 2.78 | K 3.24 | H 3.02 | N 3.21 | L 3.1 | Q 3.35 | T 3.88 | M 2.35 | P 2.66
K22: Y 1.96 | V 2.36 | N 3.45 | H 3 | G 2.68 | C 2.13 | P 3.31 | M 2.06 | D 2.89 | W 2.06 | R 2.29 | I 2.85 | S 3.31 | Q 2.81 | E 3.24 | L 2.19 | A 2.73 | F 1.83 | T 2.95
A24: E 2.62 | K 3.12 | P 3.42 | M 2.68 | D 4.05 | F 2.82 | T 2.79 | Y 2.99 | L 2.66 | I 1.95 | W 1.09 | V 2.74 | N 3.62 | R 3.11 | H 3.34 | C 3.45 | Q 3.71
